Our source for the IC50, CPE assay and fold lower IC50 than soluble ICAM-1, CPE assay values is patent EP1922329B1.

The experiment deals with human rhinovirus serotype HRV-39. As to the kind of experiment: cell-based or functional assay.

Substance “IC1-5D/IgA (ICAM/IgA fusion, gift of Dr. Tim Springer; Martin, et al., 1993) (Fc fusion)” showed an IC50, CPE assay of 0.12 µg/mL and a fold lower IC50 than soluble ICAM-1, CPE assay of 11.3 fold. The substance “soluble ICAM-1 (from UniProt P05362 28-480) (receptor)” yielded an IC50, CPE assay of 1.35 µg/mL.
